15 molecules from patent US20220211812A1 (Bristol-Myers Squibb, published 2022) can be followed below.

Square brackets hold non-standard residues; d marks the D form. Ends that are not written are not given here. Phe(4-Ac) = CC(=O)c1ccc(C[C@H](N)C(=O)O)cc1

First the molecules themselves.
B1: AQ1-KKKKKK-Glu^γ-C13-COOH (ligand)
chain 1: XLYSALANKCCHVGCTKRSLARFC
chain 2: ASWMEEVIKLCGRELVRAQIAICGMSTWS
peptide: KKKKKKE
modifications: not fully specified; Glu^γ bonded by amide to fatty acid -C13-COOH; oxime-linked to pAcF of the A chain; pAcF (para-acetyl-L-phenylalanine) at position 1, oxime-linked to PK enhancer KKKKKK-Glu^γ-C13-COOH
B2: AQ1-Sar-Sar-Sar-Glu-Glu-Glu^γ-C13-COOH (ligand)
chain 1: XLYSALANKCCHVGCTKRSLARFC
chain 2: ASWMEEVIKLCGRELVRAQIAICGMSTWS
peptide: XXXEEE
modifications: not fully specified; Sar = sarcosine (N-methylglycine); Glu^γ bonded by amide to fatty acid -C13-COOH; oxime-linked to pAcF of the A chain; pAcF (para-acetyl-L-phenylalanine) at position 1, oxime-linked to PK enhancer Sar-Sar-Sar-Glu-Glu-Glu^γ-C13-COOH
B3: AQ1-GSGSGSGS-Glu^γ-C15-COOH (ligand)
chain 1: XLYSALANKCCHVGCTKRSLARFC
chain 2: ASWMEEVIKLCGRELVRAQIAICGMSTWS
peptide: GSGSGSGSE
modifications: not fully specified; Glu^γ bonded by amide to fatty acid -C15-COOH; oxime-linked to pAcF of the A chain; pAcF (para-acetyl-L-phenylalanine) at position 1, oxime-linked to PK enhancer GSGSGSGS-Glu^γ-C15-COOH
B4: AQ1-dKdKdKdKdKdK-Glu^γ-C13-COOH (ligand)
chain 1: XLYSALANKCCHVGCTKRSLARFC
chain 2: ASWMEEVIKLCGRELVRAQIAICGMSTWS
peptide: KKKKKKE
modifications: not fully specified; dK = D-lysine (six); Glu^γ bonded by amide to fatty acid -C13-COOH; oxime-linked to pAcF of the A chain; pAcF (para-acetyl-L-phenylalanine) at position 1, oxime-linked to PK enhancer dKdKdKdKdKdK-Glu^γ-C13-COOH
B5: AQ1-EEEGGG-Glu^γ-C15-CH3 (ligand)
chain 1: XLYSALANKCCHVGCTKRSLARFC
chain 2: ASWMEEVIKLCGRELVRAQIAICGMSTWS
peptide: EEEGGGE
modifications: not fully specified; Glu^γ bonded by amide to fatty acid -C15-CH3; oxime-linked to pAcF of the A chain; pAcF (para-acetyl-L-phenylalanine) at position 1, oxime-linked to PK enhancer EEEGGG-Glu^γ-C15-CH3
B6: AQ1-GSHHHHHGS-Glu^γ-C13-COOH (ligand)
chain 1: XLYSALANKCCHVGCTKRSLARFC
chain 2: ASWMEEVIKLCGRELVRAQIAICGMSTWS
peptide: GSHHHHHGSE
modifications: not fully specified; Glu^γ bonded by amide to fatty acid -C13-COOH; oxime-linked to pAcF of the A chain; pAcF (para-acetyl-L-phenylalanine) at position 1, oxime-linked to PK enhancer GSHHHHHGS-Glu^γ-C13-COOH
B7: AQ1-KKSGGSGG-Glu^γ-C13-COOH (ligand)
chain 1: XLYSALANKCCHVGCTKRSLARFC
chain 2: ASWMEEVIKLCGRELVRAQIAICGMSTWS
peptide: KKSGGSGGE
modifications: not fully specified; Glu^γ bonded by amide to fatty acid -C13-COOH; oxime-linked to pAcF of the A chain; pAcF (para-acetyl-L-phenylalanine) at position 1, oxime-linked to PK enhancer KKSGGSGG-Glu^γ-C13-COOH
B8: AQ1-GGGGS-Glu^γ-C13-COOH (ligand)
chain 1: XLYSALANKCCHVGCTKRSLARFC
chain 2: ASWMEEVIKLCGRELVRAQIAICGMSTWS
peptide: GGGGSE
modifications: not fully specified; Glu^γ bonded by amide to fatty acid -C13-COOH; oxime-linked to pAcF of the A chain; pAcF (para-acetyl-L-phenylalanine) at position 1, oxime-linked to PK enhancer GGGGS-Glu^γ-C13-COOH
B9: AQ1-KKKSGGSGG-Glu^γ-C13-COOH (ligand)
chain 1: XLYSALANKCCHVGCTKRSLARFC
chain 2: ASWMEEVIKLCGRELVRAQIAICGMSTWS
peptide: KKKSGGSGGE
modifications: not fully specified; Glu^γ bonded by amide to fatty acid -C13-COOH; oxime-linked to pAcF of the A chain; pAcF (para-acetyl-L-phenylalanine) at position 1, oxime-linked to PK enhancer KKKSGGSGG-Glu^γ-C13-COOH
B10: BM25/AN1-C13-CH3 (ligand)
chain 1: NLYSALANKCCHVGCTKRSLARFC
chain 2: ASWMEEVIKLCGRELVRAQIAICG[Phe(4-Ac)]STWS
modifications: disulfide (positions not given here); not fully specified (some residues); ends not checked; also: PK enhancer C13-CH3 oxime-linked to pAcF25
B11: AQ1-EEEGGG-Glu^γ-C15-COOH (ligand)
chain 1: XLYSALANKCCHVGCTKRSLARFC
chain 2: ASWMEEVIKLCGRELVRAQIAICGMSTWS
peptide: EEEGGGE
modifications: not fully specified; Glu^γ bonded by amide to fatty acid -C15-COOH; oxime-linked to pAcF of the A chain; pAcF (para-acetyl-L-phenylalanine) at position 1, oxime-linked to PK enhancer EEEGGG-Glu^γ-C15-COOH
B12: RLX-BM25/AN1 (ligand)
chain 1: NLYSALANKCCHVGCTKRSLARFC
chain 2: ASWMEEVIKLCGRELVRAQIAICG[Phe(4-Ac)]STWS
modifications: disulfide (positions not given here); ends not checked
B13: AQ1-RGGEEKKKEKEK-Glu^γ-C13-COOH (ligand)
chain 1: XLYSALANKCCHVGCTKRSLARFC
chain 2: ASWMEEVIKLCGRELVRAQIAICGMSTWS
peptide: RGGEEKKKEKEKE
modifications: not fully specified; Glu^γ bonded by amide to fatty acid -C13-COOH; oxime-linked to pAcF of the A chain; pAcF (para-acetyl-L-phenylalanine) at position 1, oxime-linked to PK enhancer RGGEEKKKEKEK-Glu^γ-C13-COOH
B14: AQ1-GGGKKK-Glu^γ-C13-COOH (ligand)
chain 1: XLYSALANKCCHVGCTKRSLARFC
chain 2: ASWMEEVIKLCGRELVRAQIAICGMSTWS
peptide: GGGKKKE
modifications: not fully specified; Glu^γ bonded by amide to fatty acid -C13-COOH; oxime-linked to pAcF of the A chain; pAcF (para-acetyl-L-phenylalanine) at position 1, oxime-linked to PK enhancer GGGKKK-Glu^γ-C13-COOH
B15: AQ1-KSGGSGG-Glu^γ-C13-COOH (ligand)
chain 1: XLYSALANKCCHVGCTKRSLARFC
chain 2: ASWMEEVIKLCGRELVRAQIAICGMSTWS
peptide: KSGGSGGE
modifications: not fully specified; Glu^γ bonded by amide to fatty acid -C13-COOH; oxime-linked to pAcF of the A chain; pAcF (para-acetyl-L-phenylalanine) at position 1, oxime-linked to PK enhancer KSGGSGG-Glu^γ-C13-COOH

The experiment has as its target T1, human RXFP1 receptor (human, UniProt Q9HBX9 1-757).
T1 sequence (looked up): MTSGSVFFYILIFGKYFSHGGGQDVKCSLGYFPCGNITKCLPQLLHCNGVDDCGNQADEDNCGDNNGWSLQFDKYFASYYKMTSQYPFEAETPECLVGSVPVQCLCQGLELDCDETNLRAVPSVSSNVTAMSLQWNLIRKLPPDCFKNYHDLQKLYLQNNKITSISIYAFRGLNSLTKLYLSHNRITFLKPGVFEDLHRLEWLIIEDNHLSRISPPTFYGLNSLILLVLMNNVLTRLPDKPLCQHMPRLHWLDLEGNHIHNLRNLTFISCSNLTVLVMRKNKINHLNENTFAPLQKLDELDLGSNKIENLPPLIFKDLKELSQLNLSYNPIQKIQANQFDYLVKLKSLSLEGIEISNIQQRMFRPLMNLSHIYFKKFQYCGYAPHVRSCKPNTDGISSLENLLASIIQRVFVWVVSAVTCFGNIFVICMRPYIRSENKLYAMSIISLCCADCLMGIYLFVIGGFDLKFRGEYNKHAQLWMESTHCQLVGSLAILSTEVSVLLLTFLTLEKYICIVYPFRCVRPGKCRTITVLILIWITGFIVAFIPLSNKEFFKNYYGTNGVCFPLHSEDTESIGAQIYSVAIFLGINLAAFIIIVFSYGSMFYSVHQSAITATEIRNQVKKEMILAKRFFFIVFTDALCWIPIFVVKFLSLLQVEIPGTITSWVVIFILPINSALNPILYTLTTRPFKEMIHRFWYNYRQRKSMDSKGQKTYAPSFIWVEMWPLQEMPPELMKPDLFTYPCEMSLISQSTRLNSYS
Description: cell-based or functional assay.
For the molecule B1, the “hRXFP1/CHO-K1 cAMP EC50 (nM, avg)” value came out at 0.08 nM.
Then B2, with 0.59 nM; and B3, with 2.79 nM.
Then B4, with 0.1 nM; and B5, with 0.46 nM.
To B6 belongs 0.28 nM; to B7, 0.34 nM.
For B8, the “hRXFP1/CHO-K1 cAMP EC50 (nM, avg)” value came to 0.14 nM.
To B9 belongs 0.14 nM.
To B10 belongs 1.85 nM.
With B11, the “hRXFP1/CHO-K1 cAMP EC50 (nM, avg)” value was found to be 5.26 nM.
On to B12, for which the “hRXFP1/CHO-K1 cAMP EC50 (nM, avg)” value stood at 0.09 nM.
To B13 belongs 0.29 nM; to B14, 0.19 nM.
On to B15, for which the “hRXFP1/CHO-K1 cAMP EC50 (nM, avg)” value was found to be 0.24 nM.
